15 molecules from US20210246200A1 (UNIVERSIT T Z RICH, published 2021) can be followed below.

Usually Kd stands for a measure of binding affinity in units of concentration. A high value points to weaker binding. A word on the EC50: it is the concentration that produces a half-maximal response.

For test [1], the target named is T1, Proleukin® (aldesleukin) (human, UniProt P60568 21-153, limits assumed).
T1 construct: Variant of human wt IL-2 with C145S (C125S on mature IL-2); also called IL-2 (Proleukin®); human IL-2 (Proleukin)
T1 sequence (P60568 other isoform, or with tags, fused parts or gaps limits assumed): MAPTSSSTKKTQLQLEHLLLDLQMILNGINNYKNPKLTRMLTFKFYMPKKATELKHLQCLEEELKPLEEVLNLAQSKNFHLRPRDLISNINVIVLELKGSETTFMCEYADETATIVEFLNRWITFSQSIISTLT
The test can be described thus: ELISA, coated Proleukin, HEK293F supernatant 1:2. Background: An ELISA detects its analyte on a solid surface through an enzyme-linked reagent.
Procedure: Subsequently, hIL-2 binding efficiency of the antibodies present in the supernatants was determined using ELISA. In brief, ELISA plates (Maxisorp 96-well black microtiter plate) were coated overnight at 4° C. with 100p/well of Proleukin® (5 μg/ml PBS). ELISA plates were washed once with TBST (1×TBS/0.05% Tween 20) using a plate-washer (BioTek). […] After removal of the blocking buffer, plates were washed once with TBST using the plate washer. Supernatants were diluted 1:2 in blocking buffer and 50 μl transferred to the designated well of the ELISA plate. Each sample was present on three ELISA plates. The three plates were incubated at RT under gentle agitation. […] The other two plates were washed either every hour three times with TBST for 4 hours or washed every hour three times for 12 hours before adding the detection antibody. […] Luminescence signal was measured after 5 minutes incubation in the dark. […] All ELISA values are mean values based on two measurements.

Test [2] addresses T1, Proleukin® (aldesleukin). Nature of the test: SET assay (solution equilibration titration, MSD).
Procedure: A 22 serial 2n dilution of the antigen was prepared in sample buffer. A constant concentration of the antibody was added. […] A volume of 60 μl of each antigen:antibody mix was distributed in duplicates to a 384-well polypropylene microtiter plate (PP MTP). Sample buffer served as negative control and a sample containing no antigen as positive control (Bₘₐₓ). The plate was sealed and incubated overnight (o/n) at room temperature (RT). A 384-well standard MSD array plate was coated o/n with 2 μg/ml of IL-2. After three times washing with washing buffer, the plate was blocked with 50 μl/well blocking buffer for 1 hour at RT. After washing, a volume of 30 μl/well of the antigen:antibody mix was transferred from the PP MTP to the coated MSD plate and incubated for 20 min at RT. After an additional wash step, 30 μl of detection antibody (diluted 1:2000) in sample buffer was added to each well and incubated for 30 min at RT. The MSD plate was washed and 35 μl/well of read buffer was added and incubated for 5 min. ECL signals were measured with the MSD SECTOR Imager 6000.
The target of test [3] is T1, Proleukin® (aldesleukin). Nature of the test: ELISA, coated Proleukin, mean of 3 experiments.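 Further: binding of anti-human IL-2 antibodies, tested as an 11-point dilution series for 2 hours, to plate-bound IL-2, detected via streptavidin-HRP with absorbance read at 450 nm.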
Procedure: ELISA plates (Corning) were coated with human IL-2 (Proleukin) at 10 μg/mL in PBS overnight at 4° C. The plates were washed 6 times with PBST, then blocked in 1% BSA/PBST for 2 hours. After blocking and washing, the anti-human IL-2 antibodies were added on the plate in an 11-point dilution series in 1% BSA/PBST and incubated for 2 hours. […] The plates were then washed again and incubated with Streptavidin-Horseradish Peroxidase in 1% BSA/PBS for 45 minutes. After washing, the substrate (R&D Systems) was added into the plates and the enzymatic reaction was stopped after 3 minutes by adding Stop Solution. The plates were read by a microplate reader at 450 nm with a wavelength correction set to 540 nm.
Test [4] addresses T1, Proleukin® (aldesleukin). Nature of the test: ELISA, coated Proleukin, serially diluted supernatant.
For a further test, the target named is T2, human IL-2 (wildtype) (human, UniProt P60568 21-153).
T2 construct: also called IL-2 (WT); IL-2 wt
T2 sequence (P60568 21-153 limits assumed): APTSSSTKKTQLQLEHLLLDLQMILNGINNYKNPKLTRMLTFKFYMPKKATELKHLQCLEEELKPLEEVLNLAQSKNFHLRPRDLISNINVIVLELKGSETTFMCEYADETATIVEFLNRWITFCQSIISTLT
The test can be described thus: SET assay (solution equilibration titration, MSD).

B1: 104348_VH5D98E_VK1D28Q (antibody, human IgG1, kappa, N297A, V domains shown)
VH: EVQLVQSGAEVKKPGESLKISCKGSGYAFTNYLIEWVRQMPGKGLEWMGVINPGSGGTNYNEKFKGQVTISADKSISTAYLQWSSLKASDTAMYYCARWRGEGYYAYFDVWGQGTTVTVSS
VL: AIRLTQSPSSFSASTGDRVTITCKASQSVDYQGDSYMNWYQQKPGKAPKLLIYAASNLESGVPSRFSGSGSGTDFTLTISSLQSEDFATYYCQQSNEDPYTFGGGTKVEIKR
notes: also called Antibody No: 1; parental antibody
Turning to B1, in the test with Proleukin® (aldesleukin) [1], the “ELISA value (Normal ELISA)” value is 1180 luminescence signal, the “ELISA value (wash 3x every hour for 4 HRS)” value was determined as 1060 luminescence signal and the “ELISA value (wash 3x every hour for 12 HRS)” value worked out at 717 luminescence signal. In the test with Proleukin® (aldesleukin) [2], this molecule yielded a Kd of 0.272 nM. Further, in the test with Proleukin® (aldesleukin) [3], the EC50 was 1.18 nM. Besides, the EC50 in the test with Proleukin® (aldesleukin) [4] came to 1.04 nM.

B2: 104349 (antibody, V domains shown)
VH: EVQLVQSGAEVKKPGESLKISCKGSGYAFTNYLIEWVRQMPGKGLEWMGVINPGSGGTNYNEKFKGQVTISADKSISTAYLQWSSLKASDTAMYYCARWRGDGYYAYFDVWGQGTTVTVSS
VL: DIVLTQSPLSLPVTLGQPASISCKASQSVDYDGDSYMNWYQQRPGQSPRLLIYAASNLESGVPDRFSGSGSGTDFTLKISRVEAEDVGVYYCQQSNEDPYTFGGGTKVEIK
notes: VH5/VK2
Take B2: the Kd in the test with Proleukin® (aldesleukin) [2] turned out to be 0.082 nM. Further, the binding result in the test with human IL-2 (wildtype) is “binds”. Also, in the test with Proleukin® (aldesleukin) [3], the EC50 was 0.3 nM.

B3: 104349_VH5D98E_VK2D28Q (antibody, V domains shown)
VH: EVQLVQSGAEVKKPGESLKISCKGSGYAFTNYLIEWVRQMPGKGLEWMGVINPGSGGTNYNEKFKGQVTISADKSISTAYLQWSSLKASDTAMYYCARWRGEGYYAYFDVWGQGTTVTVSS
VL: DIVLTQSPLSLPVTLGQPASISCKASQSVDYQGDSYMNWYQQRPGQSPRLLIYAASNLESGVPDRFSGSGSGTDFTLKISRVEAEDVGVYYCQQSNEDPYTFGGGTKVEIK
notes: Human IgG1 Fc domain with the N297A point mutation
B3: the Kd in the test with Proleukin® (aldesleukin) [2] is 0.188 nM. In the test with Proleukin® (aldesleukin) [3], this molecule displayed an EC50 of 0.66 nM.

B4: 104348 (antibody, human IgG1, kappa, N297A, V domains shown)
VH: EVQLVQSGAEVKKPGESLKISCKGSGYAFTNYLIEWVRQMPGKGLEWMGVINPGSGGTNYNEKFKGQVTISADKSISTAYLQWSSLKASDTAMYYCARWRGDGYYAYFDVWGQGTTVTVSS
VL: AIRLTQSPSSFSASTGDRVTITCKASQSVDYDGDSYMNWYQQKPGKAPKLLIYAASNLESGVPSRFSGSGSGTDFTLTISSLQSEDFATYYCQQSNEDPYTFGGGTKVEIKR
notes: VH5/VK1, human IgG1 N297A
For B4, in the test with Proleukin® (aldesleukin) [2], the Kd amounted to 0.105 nM. In addition, the binding result with human IL-2 (wildtype) was “binds”. This molecule also had an EC50 in the test with Proleukin® (aldesleukin) [3] of 0.3 nM.

B5: Antibody No: 20 (antibody, human IgG1, kappa, N297A, V domains shown)
VH: EVQLVQSGAEVKKPGESLKISCKGSGYAFTNYLIEWVRQMPGKGLEWMGVINPGSGGTYYNEKFKGQVTISADKSISTAYLQWSSLKASDTAMYYCARWRGEGYYAYYDVWGQGTTVTVSS
VL: AIRLTQSPSSFSASTGDRVTITCKASQSVDYQGDSYLNWYQQKPGKAPKLLIYSASNLESGVPSRFSGSGSGTDFTLTISSLQSEDFATYYCQQSNEDPYTFGGGTKVEIKR
notes: VK M33L + A50S; also called 108928
As to B5, in the test with Proleukin® (aldesleukin) [1], the “ELISA value (Normal ELISA)” value came out at 11700 luminescence signal, the “ELISA value (wash 3x every hour for 4 HRS)” value amounted to 11100 luminescence signal and the “ELISA value (wash 3x every hour for 12 HRS)” value was 5200 luminescence signal. The same molecule came in with a concentration for a half-maximal effect (EC50) in the test with Proleukin® (aldesleukin) [3] of 0.71 nM. In the test with Proleukin® (aldesleukin) [4], the midpoint of the response, the EC50, lay at 0.27 nM.

B6: 104348_VH5_VK1D28Q (antibody, V domains shown)
VH: EVQLVQSGAEVKKPGESLKISCKGSGYAFTNYLIEWVRQMPGKGLEWMGVINPGSGGTNYNEKFKGQVTISADKSISTAYLQWSSLKASDTAMYYCARWRGDGYYAYFDVWGQGTTVTVSS
VL: AIRLTQSPSSFSASTGDRVTITCKASQSVDYQGDSYMNWYQQKPGKAPKLLIYAASNLESGVPSRFSGSGSGTDFTLTISSLQSEDFATYYCQQSNEDPYTFGGGTKVEIK
notes: as for B3
Turning to B6, in the test with Proleukin® (aldesleukin) [2], the Kd worked out at 0.155 nM. In the test with Proleukin® (aldesleukin) [3], this molecule registered an EC50 of 0.97 nM.

B7: 104348_VH5D98E_VK1 (antibody, V domains shown)
VH: EVQLVQSGAEVKKPGESLKISCKGSGYAFTNYLIEWVRQMPGKGLEWMGVINPGSGGTNYNEKFKGQVTISADKSISTAYLQWSSLKASDTAMYYCARWRGEGYYAYFDVWGQGTTVTVSS
VL: AIRLTQSPSSFSASTGDRVTITCKASQSVDYDGDSYMNWYQQKPGKAPKLLIYAASNLESGVPSRFSGSGSGTDFTLTISSLQSEDFATYYCQQSNEDPYTFGGGTKVEIK
notes: as for B3
In the test with Proleukin® (aldesleukin) [2], B7 gave a Kd of 0.206 nM. In addition, the EC50 in the test with Proleukin® (aldesleukin) [3] is 0.77 nM.

B8: 104349_VH5_VK2D28Q (antibody, V domains shown)
VH: EVQLVQSGAEVKKPGESLKISCKGSGYAFTNYLIEWVRQMPGKGLEWMGVINPGSGGTNYNEKFKGQVTISADKSISTAYLQWSSLKASDTAMYYCARWRGDGYYAYFDVWGQGTTVTVSS
VL: DIVLTQSPLSLPVTLGQPASISCKASQSVDYQGDSYMNWYQQRPGQSPRLLIYAASNLESGVPDRFSGSGSGTDFTLKISRVEAEDVGVYYCQQSNEDPYTFGGGTKVEIK
notes: as for B3
On to B8, for which the affinity with Proleukin® (aldesleukin) [2], expressed as Kd, was 0.069 nM. Moreover, the EC50 with Proleukin® (aldesleukin) [3] amounted to 0.43 nM.

B9: 104349_VH5D98E_VK2 (antibody, V domains shown)
VH: EVQLVQSGAEVKKPGESLKISCKGSGYAFTNYLIEWVRQMPGKGLEWMGVINPGSGGTNYNEKFKGQVTISADKSISTAYLQWSSLKASDTAMYYCARWRGEGYYAYFDVWGQGTTVTVSS
VL: DIVLTQSPLSLPVTLGQPASISCKASQSVDYDGDSYMNWYQQRPGQSPRLLIYAASNLESGVPDRFSGSGSGTDFTLKISRVEAEDVGVYYCQQSNEDPYTFGGGTKVEIK
notes: as for B3
As for B9, binding with Proleukin® (aldesleukin) [2] was characterised by a dissociation constant (Kd) of 0.178 nM. In the test with Proleukin® (aldesleukin) [3], this molecule had a half-maximal effective concentration (EC50) of 0.56 nM.

B10: 104347 (antibody, V domains shown)
VH: QVQLVESGGGVVQPGRSLRLSCAASGYTFSSYLIEWVRQAPGKGLEWVAVINPGSGGTNYADSVKGRFTISADKSKNTAYLQMNSLRAEDTAVYYCARWRGDGYYAYFDVWGQGTTVTVSS
VL: EIVLTQSPATLSVSPGERATLSCRASQSVSYDGDSYMNWYQQKPGQAPRLLIYAASNLASGIPARFSGSGSGTEFTLTISSLQSEDAAVYYCQQSNEDPYTFGGGTKVEIK
notes: VH3s/VK3s
In the test with Proleukin® (aldesleukin) [2], B10 registered a Kd of 10 nM. Further, in the test with human IL-2 (wildtype), the binding result was “binds”. In addition, the EC50 in the test with Proleukin® (aldesleukin) [3] amounted to 39 nM.

B11: NARA1 (antibody, mouse IgG2a, kappa, V domains shown)
VH: QVQLQQSGAELVRPGTSVKVSCKASGYAFTNYLIEWVKQRPGQGLEWIGVINPGSGGTNYNEKFKGKATLTADKSSSTAYMQLSSLTSDDSAVYFCARWRGDGYYAYFDVWGAGTTVTVSS
VL: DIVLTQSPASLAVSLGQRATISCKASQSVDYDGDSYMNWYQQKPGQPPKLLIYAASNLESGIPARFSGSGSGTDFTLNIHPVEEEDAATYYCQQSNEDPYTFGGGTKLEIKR
notes: Mouse monoclonal anti-human IL-2 antibody, mouse IgG2a; also called anti-IL-2 (NARA1)-mIgG2a; anti-IL-2 (NARA1)-mouse IgG2a
With B11, in the test with Proleukin® (aldesleukin) [2], the Kd came out at 0.078 nM. In addition, the binding result with human IL-2 (wildtype) is given as “binds”. This molecule also returned an EC50 with Proleukin® (aldesleukin) [3] of 0.3 nM.

B12: 104343 (antibody, human IgG1, kappa, N297A, V domains shown)
VH: QVQLVQSGAEVKKPGSSVKVSCKASGYAFTNYLIEWVRQAPGQGLEWMGVINPGSGGTNYNEKFKGRVTITADKSTSTAYMELSSLRSEDTAVYYCARWRGDGYYAYFDVWGQGTTVTVSS
VL: DIVLTQSPLSLPVTLGQPASISCKASQSVDYDGDSYMNWYQQRPGQSPRLLIYAASNLESGVPDRFSGSGSGTDFTLKISRVEAEDVGVYYCQQSNEDPYTFGGGTKVEIKR
notes: VH1/VK2, human IgG1 N297A
B12 yielded a Kd with Proleukin® (aldesleukin) [2] of 0.075 nM. For the same molecule, the binding result with human IL-2 (wildtype) was “binds”. Further, the EC50 with Proleukin® (aldesleukin) [3] came out at 0.3 nM.

B13: 104343_VH1D98E_VK2D28Q (antibody, V domains shown)
VH: QVQLVQSGAEVKKPGSSVKVSCKASGYAFTNYLIEWVRQAPGQGLEWMGVINPGSGGTNYNEKFKGRVTITADKSTSTAYMELSSLRSEDTAVYYCARWRGEGYYAYFDVWGQGTTVTVSS
VL: DIVLTQSPLSLPVTLGQPASISCKASQSVDYQGDSYMNWYQQRPGQSPRLLIYAASNLESGVPDRFSGSGSGTDFTLKISRVEAEDVGVYYCQQSNEDPYTFGGGTKVEIK
notes: as for B3
Molecule B13 yielded a Kd with Proleukin® (aldesleukin) [2] of 0.111 nM. Besides, the EC50 with Proleukin® (aldesleukin) [3] turned out to be 0.75 nM.

B14: 104343_VH1_VK2D28Q (antibody, V domains shown)
VH: QVQLVQSGAEVKKPGSSVKVSCKASGYAFTNYLIEWVRQAPGQGLEWMGVINPGSGGTNYNEKFKGRVTITADKSTSTAYMELSSLRSEDTAVYYCARWRGDGYYAYFDVWGQGTTVTVSS
VL: DIVLTQSPLSLPVTLGQPASISCKASQSVDYQGDSYMNWYQQRPGQSPRLLIYAASNLESGVPDRFSGSGSGTDFTLKISRVEAEDVGVYYCQQSNEDPYTFGGGTKVEIK
notes: as for B3
B14 gave a Kd with Proleukin® (aldesleukin) [2] of 0.069 nM. This molecule displayed an EC50 with Proleukin® (aldesleukin) [3] of 0.59 nM.

B15: 104343_VH1D98E_VK2 (antibody, V domains shown)
VH: QVQLVQSGAEVKKPGSSVKVSCKASGYAFTNYLIEWVRQAPGQGLEWMGVINPGSGGTNYNEKFKGRVTITADKSTSTAYMELSSLRSEDTAVYYCARWRGEGYYAYFDVWGQGTTVTVSS
VL: DIVLTQSPLSLPVTLGQPASISCKASQSVDYDGDSYMNWYQQRPGQSPRLLIYAASNLESGVPDRFSGSGSGTDFTLKISRVEAEDVGVYYCQQSNEDPYTFGGGTKVEIK
notes: as for B3
In the test with Proleukin® (aldesleukin) [2], B15 returned a Kd of 0.098 nM. In addition, in the test with Proleukin® (aldesleukin) [3], the EC50 was determined as 0.57 nM.
